This is an account of results in the RNAGym collection of RNA variant scans (doi:10.7554/elife.80360).

Sequences and labels used below:
B1: HDV Ribozyme (parent)
chain: GGCCGGCAUGGUCCCAGCCUCCUCGCUGGCGCCGGCUGGGCAACAUUCCGAGGGGACCGUCCCCUCGGUAAUGGCGAAUGGGACCCA

In this data set the parent is B1. The experiment in a line: self-cleavage, relative activity (ratio to wild type); higher = more cleavage; co-transcriptional.
Consider GGCUGGCAUUGUCCCAGCCUCCUCGCUGGCGCCGGCUGGGCAACAUUCCGAGGGGACCGUCCCCUCGGUAAUGGCGAAUGGGACCCA, for which the self-cleavage was 0.163.
For the variant GGCCGGCAUGGUCCCAGCCUACUCGCUGGCGCCGGCUGGGCAACAUUCUGAGGGGACCGUCCCCUCGGUAAUGGCGAAUGGGACCCA, the self-cleavage was determined as 0.0272.
In the case of GGCCGGCAUGGUACCAUCCUCCUCGCUGGCGCCGGCUGGGCAACAUUCCGAGGGGACCGUCCCCUCGGUAAUGGCGAAUGGGACCCA it was 0.169; in that of GGCCGGCAUGGUCCCAGCCUCCUCGCUGGCUCCGGCUGGGCAACAUUCCGAGGGGACCGUCCCCUCGGUAAUGGCCAAUGGGACCCA, 0.479; in that of GGCCGGCAUGGUCCCAGCCUACUCGCUGGCGCCGGCUGGGCAACAUUCCGAGGGGACCGUCCCCUCGGUAAUGGCGAAUGAGACCCA, 0.0647.
The figure for GGCCGGCAUGGUCCCAGCCUCCUCGCUGGCGCCGGCUGGGCAACAUUCCGAGGGGACCGUCCCCUCGGUAAUGGCGAAGCGGACCCA is 0.277; for GGCCGGCAUGGUCCCAGCCUCCUCGCUGGCGCCGGCUGGGCAACAUUCCGAGGGGACAGUCCCCUCGGUAAUGUCGAAUGGGACCCA it is 0.554.
The figure for GGCCGGCAUGGUCCCAGCCUCCUCGCUGGCGCCGGCUGGGCAACAUGCCGAGGGGACCGUCCCCUCGGUAAUAGCGAAUGGGACCCA is 0.852; for GGCCGGGAUGGUCCCAGCCUCCUCGCUGGCGCCGGCUGGGCAACAUUCCGAGGGGACCUUCCCCUCGGUAAUGGCGAAUGGGACCCA it is 0.237.
GACCGGCAUGGUCCCAGCCUCCUCGCUGGCGCCAGCUGGGCAACAUUCCGAGGGGACCGUCCCCUCGGUAAUGGCGAAUGGGACCCA: the self-cleavage was found to be 0.0536.
The figure for GGCCGGCAGGGUCCCAGCCUCCUCGCUGGCGCCGGCUGGGCAACAUUCCGAGGGGACCGUCCCCUCGGUAAGGGCGAAUGGGACCCA is 0.776; for GGCCGGCAUGGUCCCAGCCUCCUCGCUGGCGCCGGCUGGGCAACAUUUCGAGGGGACCGUCCCCUCGGUAAUGGCGAAUGGGACCCA it is 1.01.
The figure for GGCCGGCCUGGUCCCAGCCUCCUCGCUGGUGCCGGCUGGGCAACAUUCCGAGGGGACCGUCCCCUCGGUAAUGGCGAAUGGGACCCA is 0.415.
GGCCGGCAUGGUCCCAGCCUCCUCGCUGGAGCCGGCUGGGCAACAUUCCGAGGGGACCGUCCCCUCGGUAAUGGCGAAUGGGACCAA: the self-cleavage amounted to 0.591.
The figure for GCCCGACAUGGUCCCAGCCUCCUCGCUGGCGCCGGCUGGGCAACAUUCCGAGGGGACCGUCCCCUCGGUAAUGGCGAAUGGGACCCA is 0.0839; for GGCCGGCAUGGUCCCAGGCUCCUCGCUGGCGCCGGCUGGGCAACAUUCCUAGGGGACCGUCCCCUCGGUAAUGGCGAAUGGGACCCA it is 0.196.
The figure for GGCCGGCAUGGUCCCAACCUCCUCGCUGGCGCCGGCUGGGCAACAUUCCGAGGGGACCGUCCCCUCGGUAAUGGCGAAUCGGACCCA is 0.345; for GGCCGGCAUGGUCCCAGCCUCCUCGCUGGCGCCGGCUGGGUAACAUUCCGAGGGGCCCGUCCCCUCGGUAAUGGCGAAUGGGACCCA it is 1.04; for GGCUGGCAUGGUCCCAGCCUCCUCUCUGGCGCCGGCUGGGCAACAUUCCGAGGGGACCGUCCCCUCGGUAAUGGCGAAUGGGACCCA it is 0.0287.
The figure for GGCCGGCAUGGUCCCAGCCUCCUCGCUGGCGCCGGCUGGGCAACAUUCCGAGGUGACAGUCCCCUCGGUAAUGGCGAAUGGGACCCA is 1.07; for GGCCGGCAAGGUCCCAGCCUCCUCGCUGGCGCCGGCUGGGCAACAUUCCGAGGGGACCGUCCCCUCGGUAAUGGCGAAUUGGACCCA it is 0.213; for GGCCGGCAUGGUCCCAGCCUGCUCGAUGGCGCCGGCUGGGCAACAUUCCGAGGGGACCGUCCCCUCGGUAAUGGCGAAUGGGACCCA it is 0.
Consider GGCCAACAUGGUCCCAGCCUCCUCGCUGGCGCCGGCUGGGCAACAUUCCGAGGGGACCGUCCCCUCGGUAAUGGCGAAUGGGACCCA, for which the self-cleavage is 0.
In the case of GGCCGGCAUGUGCCCAGCCUCCUCGCUGGCGCCGGCUGGGCAACAUUCCGAGGGGACCGUCCCCUCGGUAAUGGCGAAUGGGACCCA it was 0.199.
The figure for GGCCGGCAUGGUCCCAGCCUCCUCGCUGACGCCGGCUGGGCAACAUUCCGAGGGGACCGUCCCCUCGGUAAUGGCGAAUGGGACCCG is 0.135; for GGCCGGCAUGGUCCCAGCCUCCUCGCUGGCGCCGGCUGGACAACAUUCCGAGGGGACCGUCCCCUCGGUAAUUGCGAAUGGGACCCA it is 0.554.
The figure for GGCCGGCAUGGUCCCAGCCCCCUCGCUGGCGCCGGCUGGGCAACAUUCCGAGGGGACCGUCCCCUCGGUAAUGGCGAAUGGGGCCCA is 0.149; for GGCCGGCAUGGUCCCAGCCUCCUAGCUGGCGCCGGCUGGGCAACAUUCCGAGGGGACCGUCCCCUCGGUAAUGGCGCAUGGGACCCA it is 0.185; for GGCUGGCAUGGUACCAGCCUCCUCGCUGGCGCCGGCUGGGCAACAUUCCGAGGGGACCGUCCCCUCGGUAAUGGCGAAUGGGACCCA it is 0.122.
Take GGCCGGCAUGGUCCCAGCCUCCUCGCUGCCGCCGGCUGGCCAACAUUCCGAGGGGACCGUCCCCUCGGUAAUGGCGAAUGGGACCCA: the self-cleavage is 0.18.
The figure for GGCCGGCAUGGACCCAGCCUCCUCGCUGGCGCCGGCUGGGCAACAUUCCGAGGGGACCGUCCCAUCGGUAAUGGCGAAUGGGACCCA is 0.26; for GGUCGGCAUGGUCCCAGCCUCCUAGCUGGCGCCGGCUGGGCAACAUUCCGAGGGGACCGUCCCCUCGGUAAUGGCGAAUGGGACCCA it is 0.328.
